In assay [1] the target is T1, LPAR1 (on CHO cells; species not stated) (UniProt Q92633 1-364).
T1 construct: whole, on cells; also called CHO-LPAR1 cells
Kind of assay: KinExA (method 1.14), monomeric Fab as constant binding partner, CHO-LPAR1 cells titrated. The method, then: The monomeric affinity constant KD for the interaction of antibodies with LPAR1 was determined using monomeric Fabs derived from the antibodies, using the KinExA method. In this method, the concentration of unbound antibody is measured against a range of antigen concentrations. Because KD=([Free antigen][Free antibody])/[Antigen-antibody complex], the value of KD can be deduced from these measurements. CHO-LPAR1 cells, the antigen source, are titrated in a background of constant binding partner (CBP, e.g. a Fab to be tested). Samples are gently rocked until equilibrium is reached. After incubation, cells are centrifuged and the free CBP is removed without disturbing the cell pellet. Beads coated with Anti-Species are used to capture a portion of free CBP. Captured CBP is detected with a fluorescently labelled Anti-CBP using the KinExA. The fluorescent signal is converted to a voltage signal that is directly proportional to the concentration of free CBP in the equilibrated sample.
Background: In KinExA the mixture passes briefly over coated beads that capture the unbound partner.

Assay [2] has as its target T2, human LPAR1 (full length LPAR1, SEQ ID NO: 62) (human, UniProt Q92633 1-364).
T2 construct: Also used here for hLPAR1 in HEK293 cells (method 1.15); also called Lysophosphatidic Acid Receptor 1; LPA1
Kind of assay: transient-transfection CIFAT (protocol 1.11) on CHO-K1 cells expressing human LPAR1 and alanine variants. The method, then: (§1) CHO-K1 cells were seeded in clear 96-well plates at 20,000 cells per 200 μL full growth medium and incubated for 24 hours at 37° C. The following day, in a sterile tube, 0.0309 uL/well PEI (Generon, MW 160,000) was diluted into 10 uL/well transfection medium (DMEM supplemented with 2 mM L-glutamine and Penicillin-Streptomycin). The diluted PEI was added to 100 ng/well DNA encoding the target protein (human LPAR1 (SEQ ID NO: 62) unless otherwise stated), before vortexing immediately and incubating the mixture for 10 minutes at room temperature. 200 μL/well full growth medium was added to the PEI-DNA mixture, then medium in wells was taken off and 200 ul full growth medium/PEI/DNA mixture was added in the wells of the adherent cell plate. […] After washing and cell fixation with 4% PFA, the binding of the antibodies was detected using a goat anti-human Alexa Fluor 488 detection antibody (Invitrogen), incubated for 1 hour at room temperature. Fluorescence at 488 nm was measured using a BMG LABTECH ClarioStar plate reader and microscopy images were taken at 10× magnification.
Based on the epitope analysis presented in FIGS. 3 and 4, constructs were designed to test the important residues/interaction regions predicted in silico. […] CHO-K1 cells were transiently transfected with these plasm ids and the binding of an anti-LPAR1 mAb assessed to each of these receptor variants using protocol 1.11. […]

In assay [3] the target is T2, human LPAR1 (full length LPAR1, SEQ ID …). Kind of assay: transient-transfection CIFAT (method 1.11), fixed/permeabilised and live cells expressing LPAR1, microscopy. The method, then: as §1, with “plate. The plate was incubated for 24 hours at 37° C. The next day, the medium was discarded and replaced with 200 μL full growth medium. The plate was incubated for 24 hours at 37° C.” for “plate.”, “magnification. […]” for “magnification.”

Positions count from the first letter of the chain named.

T1 sequence (Q92633 whole entry): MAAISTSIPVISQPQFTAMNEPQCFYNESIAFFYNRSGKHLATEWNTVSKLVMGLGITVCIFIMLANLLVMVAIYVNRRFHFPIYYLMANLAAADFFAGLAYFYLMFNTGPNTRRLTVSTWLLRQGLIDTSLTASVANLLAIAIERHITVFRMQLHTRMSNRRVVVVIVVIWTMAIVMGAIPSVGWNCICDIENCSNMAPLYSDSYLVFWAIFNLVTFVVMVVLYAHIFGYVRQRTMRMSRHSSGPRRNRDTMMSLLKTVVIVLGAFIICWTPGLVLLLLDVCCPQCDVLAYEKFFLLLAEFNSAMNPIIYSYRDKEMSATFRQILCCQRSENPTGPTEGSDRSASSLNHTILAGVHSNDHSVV
T2 sequence (Q92633 whole entry): as above

B1: Antibody 15, monomeric Fab (Fab, V domains shown)
VH: QVQLVQSGSELKKPGASVKVSCKASGYTFTSSGISWVRQAPGQGLEWMGEILPRSGYTNYNQGFTGRFVFSADKSVSTAYLQISSLKAEDTAVYYCARDFKGGRYAMDYWGQGTTVTVSS
VL: SIQMTQSPSSLSASVGDRVTITCQASQSVRYNVAWYQQKPGKAPKLLIYYASNRYEGVPSRFSGSGSGTDFTFTISSLQPEDIATYFCQHHYSSPLTFGGGTKLEIK
For the molecule B1, the Kd in assay [1] was determined as 0.824 nM.

B2: Antibody 16, monomeric Fab (Fab, V domains shown)
VH: B1 VH
VL: B1 VL
notes: Same VH and VL as Antibody 15; The two antibodies differ only in the silencing mutations of the heavy chain constant region
In assay [1], B2 yielded a Kd of 0.824 nM.

B3: anti-LPAR1 mAb with the VH of SEQ ID NO: 369 and VL of SEQ ID NO: 39 (antibody, IgG1, V domains shown)
VH: B1 VH with K101A, G102S, G103A
VL: B1 VL with E56T
notes: also called huVH4_Q61A97A99G104 (VH); 11 VL
B3: in assay [2], the binding result was “binds”.

B4: Antibody 13, monomeric Fab (Fab, V domains shown)
VH: B1 VH with F100K, K101G, G102P, G103S, A106T
VL: B1 VL with E56D
For B4, the Kd in assay [1] is 0.993 nM. In other words, the sub-nanomolar range.

B5: Antibody 17, monomeric Fab (Fab, V domains shown)
VH: B1 VH with L52Q, F100K, K101G, G102P, G103A, A106T
VL: B1 VL
Take B5: binding in assay [1] was characterised by a dissociation constant (Kd) of 1 nM.

B6: Antibody 12, monomeric Fab (Fab, V domains shown)
VH: B1 VH
VL: B1 VL with E56D
In assay [1], B6 gave a Kd of 1.28 nM.

B7: Antibody 18, monomeric Fab (Fab, V domains shown)
VH: B1 VH with L52Q, F100K, K101G, G102P, G103A, A106T
VL: B1 VL with V29I, F87Y
Molecule B7 displayed a Kd in assay [1] of 1.39 nM.

B8: 63D8 (antibody, IgG1, V domains shown)
VH: EVKLLESGGGLVQPGGSLKLSCTASGFDFSRYWMSWVRQAPGKGLEWIGEINPSRSAINYSPSLKDKFIISRDNAKNTLYLQMSKVRSEDTALYYCARQGQRLRYGMDYWGQGTSVTVSS
VL: DIVMTQSPNFMSTSVGDRVSVTCRASQDVRTAVAWYQQKPGRSPKLLIYWTSTRHTGVPDRFTGSGSGTDYTLTISSVQAADLALYYCQQHYGTPLTFGAGTNLELK
notes: First found as a mouse hybridoma antibody
Consider B8, for which the binding result in assay [3] was “binds”.

B9: Antibody 4 (antibody, IgG1, V domains shown)
VH: QVQLQQSGAELARPGASVKLSCKASGYTFTSSGISWVKQRTGQGLEWIGEIYPRSGYTNYNEKFKGKASLTADKSSRTAYMELRSLTSEDSAVYFCARDYDNSRYALDYWGQGTSVTVSS
VL: SIVMTQTPKFLPVSAGDRVTMTCKASQSVGYNVAWYQQKTGQSPKLLIYYASNRYTGVPDRFTGSGSGTDFTFTISSVQVEDLAVYFCQHHYSSPLTFGAGTKLELK
As to B9, the binding result in assay [3] is on record as “binds”.

Broadly, the Kd is the equilibrium constant for the complex coming apart. A high value points to lower affinity.

Source of the values: patent US20230181671A1 (published 2023).
